Assay results as given in paper PMC10853767.

Target: NLS-GS-HIStag-GS-dCas12e-ABI (ABI domain fused directly to dCas12e)

Substance: HA-PYL1-linker-VP64-NLS (PYL1 fused to VP64) (domain or fragment)
- yEGFP activation efficiency of the ABA-sensing YES gate with ABI fused directly to dCas12e and an unchanged sgRNA, circuit 3x; the pair is bridged by the small molecule ABA: 2.79 fold
